Target: the molecule itself
Assay: SEC

Row | Protein | stoichiometry N
1 | BTN2A1 (271–527) wild type (domain or fragment, human, UniProt Q7KYR7 271-527, looked up) KLQKEKKILSGEKEFERETREIALKELEKERVQKEEELQVKEKLQEELRWRRTFLHAVDVVLDPDTAHPDLFLSEDRRSVRRCPFRHLGESVPDNPERFDSQPCVLGRESFASGKHYWEVEVENVIEWTVGVCRDSVERKGEVLLIPQNGFWTLEMHKGQYRAVSSPDRILPLKESLCRVGVFLDYEAGDVSFYNMRDRSHIYTCPRSAFSVPVRPFFRLGCEDSPIFICPALTGANGVTVPEEGLTLHRVGTHQSL | 2
2 | BTN2A1 (271–527) L318G (domain or fragment, human, UniProt Q7KYR7 271-527, looked up) KLQKEKKILSGEKEFERETREIALKELEKERVQKEEELQVKEKLQEEGRWRRTFLHAVDVVLDPDTAHPDLFLSEDRRSVRRCPFRHLGESVPDNPERFDSQPCVLGRESFASGKHYWEVEVENVIEWTVGVCRDSVERKGEVLLIPQNGFWTLEMHKGQYRAVSSPDRILPLKESLCRVGVFLDYEAGDVSFYNMRDRSHIYTCPRSAFSVPVRPFFRLGCEDSPIFICPALTGANGVTVPEEGLTLHRVGTHQSL | 2
3 | BTN2A1 (271–527) L318GW320A (domain or fragment, human, UniProt Q7KYR7 271-527, looked up) KLQKEKKILSGEKEFERETREIALKELEKERVQKEEELQVKEKLQEEGRARRTFLHAVDVVLDPDTAHPDLFLSEDRRSVRRCPFRHLGESVPDNPERFDSQPCVLGRESFASGKHYWEVEVENVIEWTVGVCRDSVERKGEVLLIPQNGFWTLEMHKGQYRAVSSPDRILPLKESLCRVGVFLDYEAGDVSFYNMRDRSHIYTCPRSAFSVPVRPFFRLGCEDSPIFICPALTGANGVTVPEEGLTLHRVGTHQSL | 2
4 | BTN2A1 (271–527) W320A (domain or fragment, human, UniProt Q7KYR7 271-527, looked up) KLQKEKKILSGEKEFERETREIALKELEKERVQKEEELQVKEKLQEELRARRTFLHAVDVVLDPDTAHPDLFLSEDRRSVRRCPFRHLGESVPDNPERFDSQPCVLGRESFASGKHYWEVEVENVIEWTVGVCRDSVERKGEVLLIPQNGFWTLEMHKGQYRAVSSPDRILPLKESLCRVGVFLDYEAGDVSFYNMRDRSHIYTCPRSAFSVPVRPFFRLGCEDSPIFICPALTGANGVTVPEEGLTLHRVGTHQSL | 2
5 | BTN2A1 (309–527) wild type (domain or fragment, human, UniProt Q7KYR7 309-527, looked up) QVKEKLQEELRWRRTFLHAVDVVLDPDTAHPDLFLSEDRRSVRRCPFRHLGESVPDNPERFDSQPCVLGRESFASGKHYWEVEVENVIEWTVGVCRDSVERKGEVLLIPQNGFWTLEMHKGQYRAVSSPDRILPLKESLCRVGVFLDYEAGDVSFYNMRDRSHIYTCPRSAFSVPVRPFFRLGCEDSPIFICPALTGANGVTVPEEGLTLHRVGTHQSL | 2

From PMC10330345 (Journal of immunology (Baltimore, Md. : 1950), 2023)
